Results published in US20240368288A1 (HEMOGENYX PHARMACEUTICALS, published 2024).
Several values for one entry are separate records, joined by “and”; a condition that tells them apart may be missing. Equal values may be shown once.

Tests used:
[1] = molecular target: T1, human CD3 on the surface of T cells / Jurkat cells (human, UniProt P07766 23-207; P09693 23-182; P04234 22-171); assay: flow cytometry on CD3+ Jurkat cells
T1 construct: whole, on cells
Source text: (§1) Cells were washed five times with flow buffer and stained with anti-human IgG lambda antibody conjugated to FITC (Southern Biotech 2070-02). Cells were stained with 7-AAD (7-AAD Viability Staining Solution, Biolegend 420404) followed by flow cytometry analysis.

[2] = molecular target: T1, human CD3 on the surface of T cells / …; assay: flow cytometry on CD3+ primary T cells
Source text: as §1

[3] = molecular target: T2, human FLT3 (Fms Related Receptor Tyrosine Kinase 3) expressed on cells (human, UniProt P36888 27-993); assay: cell-based or functional assay
T2 sequence (looked up): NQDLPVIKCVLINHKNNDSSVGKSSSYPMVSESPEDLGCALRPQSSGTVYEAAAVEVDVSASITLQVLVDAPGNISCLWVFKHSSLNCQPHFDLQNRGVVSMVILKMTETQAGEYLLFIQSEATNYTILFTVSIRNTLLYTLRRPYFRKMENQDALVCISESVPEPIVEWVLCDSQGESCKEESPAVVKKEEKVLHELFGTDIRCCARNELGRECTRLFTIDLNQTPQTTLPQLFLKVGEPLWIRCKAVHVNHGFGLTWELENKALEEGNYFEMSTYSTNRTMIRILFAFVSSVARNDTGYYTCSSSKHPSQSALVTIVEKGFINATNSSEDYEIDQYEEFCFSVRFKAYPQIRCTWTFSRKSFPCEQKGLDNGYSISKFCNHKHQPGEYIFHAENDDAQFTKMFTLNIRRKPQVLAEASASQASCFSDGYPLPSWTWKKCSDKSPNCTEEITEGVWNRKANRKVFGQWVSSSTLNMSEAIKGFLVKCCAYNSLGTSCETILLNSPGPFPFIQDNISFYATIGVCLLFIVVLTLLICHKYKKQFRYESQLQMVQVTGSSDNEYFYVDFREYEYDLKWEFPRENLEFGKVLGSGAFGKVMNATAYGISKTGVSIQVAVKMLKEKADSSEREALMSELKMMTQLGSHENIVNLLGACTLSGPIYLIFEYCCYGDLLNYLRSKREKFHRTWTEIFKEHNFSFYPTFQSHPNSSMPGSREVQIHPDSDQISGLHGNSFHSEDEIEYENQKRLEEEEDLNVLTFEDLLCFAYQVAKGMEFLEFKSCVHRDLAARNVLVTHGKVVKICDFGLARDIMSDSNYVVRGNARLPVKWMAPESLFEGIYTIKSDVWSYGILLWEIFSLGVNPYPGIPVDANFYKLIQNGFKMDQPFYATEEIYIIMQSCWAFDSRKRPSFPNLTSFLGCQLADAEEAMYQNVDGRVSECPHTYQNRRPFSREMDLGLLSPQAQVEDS

[4] = molecular target: T3, Recombinant Human CD3 epsilon Fc Chimera Protein (R&D, no. 9850-CD-050) (human, UniProt P07766 23-126); assay: ELISA, plate coated with recombinant human CD3 epsilon Fc chimera
T3 construct: Bought reagent; Fc part of the bought chimera not given
T3 sequence (P07766 23-126, change not shown): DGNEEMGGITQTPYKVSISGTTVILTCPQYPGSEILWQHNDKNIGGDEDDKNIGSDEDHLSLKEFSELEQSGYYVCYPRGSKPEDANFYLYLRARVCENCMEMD
Method: The plate was washed with wash buffer (PBS (Caisson Labs, no. PBL06)+0.05% Tween20 (ThermoFisher, no. 28320)) The plate was blocked with blocking buffer (PBS (Caisson Labs, no. PBL06)+1% (w/v) BSA (Rockland, no. BSA-50)+0.05% Tween20 (ThermoFisher, no 28320)) for two hours at room temperature (RT). Plate was washed twice with wash buffer. […] Plate was washed 4× with wash buffer. Plate was incubated with 100 μL per well of 1:200 goat anti-human lambda-HRP secondary antibody (SouthernBiotech, no. 2070-05) for one hour at RT. Plate was washed 4× with wash buffer. Plate was incubated with 100 μL per well of TMB Substrate (ThermoFisher Cat #34029) for 20 minutes protected from light. Stop solution (2N H₂SO₄) was added to each well. Absorbance of wells was recorded at 450 nm on an Envision plate reader (PerkinElmer). […] Variable slope (four parameters) curve was fit to the data and EC50 was used to compare binding affinities.

[5] = molecular target: T2, human FLT3 (Fms Related Receptor …); assay: flow cytometry on FLT3+ REH cells
Source text: as §1

[6] = molecular target: T2, human FLT3 (Fms Related Receptor …); assay: flow cytometry on FLT3+ OCI-AML cells
Source text: as §1, with “analysis. […] Binding of bispecific antibody to cells should directly correlate with FLT3 expression.” for “analysis.”

[7] = molecular target: T1, human CD3 on the surface of T cells / …; assay: flow cytometry on CD3+ human T cells
Source text: as §1

[8] = molecular target: T2, human FLT3 (Fms Related Receptor …); assay: flow cytometry on FLT3+ THP-1 cells
Source text: as §1, with “analysis. […] Binding of bispecific antibody to cells should directly correlate with FLT3 expression.” for “analysis.”

[9] = molecular target: T2, human FLT3 (Fms Related Receptor …); assay: flow cytometry on FLT3+ MOLM-13 cells
Source text: as §1, with “analysis. […] Binding of bispecific antibody to cells should directly correlate with FLT3 expression.” for “analysis.”

[10] = molecular target: T2, human FLT3 (Fms Related Receptor …); assay: flow cytometry on FLT3+ NOMO-1 cells
Source text: as §1, with “analysis. […] Binding of bispecific antibody to cells should directly correlate with FLT3 expression.” for “analysis.”

[11] = molecular target: T2, human FLT3 (Fms Related Receptor …); assay: flow cytometry on FLT3+ HL-60 cells
Source text: as §1, with “analysis. […] Binding of bispecific antibody to cells should directly correlate with FLT3 expression.” for “analysis.”

[12] = molecular target: T2, human FLT3 (Fms Related Receptor …); assay: flow cytometry on FLT3+ MV4-11 cells
Source text: as §1, with “analysis. […] Binding of bispecific antibody to cells should directly correlate with FLT3 expression.” for “analysis.”

T1 sequence (P07766 23-207, chain 1 of 3): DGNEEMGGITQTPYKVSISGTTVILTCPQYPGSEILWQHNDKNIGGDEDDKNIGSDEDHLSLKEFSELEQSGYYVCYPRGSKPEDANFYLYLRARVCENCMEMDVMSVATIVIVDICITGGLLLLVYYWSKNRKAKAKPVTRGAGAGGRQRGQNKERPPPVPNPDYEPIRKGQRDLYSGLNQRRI
T1 sequence (P09693 23-182, chain 2 of 3): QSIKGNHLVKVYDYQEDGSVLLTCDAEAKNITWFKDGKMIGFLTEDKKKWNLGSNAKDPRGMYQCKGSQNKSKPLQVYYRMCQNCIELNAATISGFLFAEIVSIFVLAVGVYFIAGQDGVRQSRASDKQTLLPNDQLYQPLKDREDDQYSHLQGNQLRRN
T1 sequence (P04234 22-171, chain 3 of 3): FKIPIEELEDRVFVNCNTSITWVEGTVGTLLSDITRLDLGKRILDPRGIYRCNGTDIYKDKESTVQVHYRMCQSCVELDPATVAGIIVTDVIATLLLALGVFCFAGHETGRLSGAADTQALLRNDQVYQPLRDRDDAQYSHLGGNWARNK

- EC50 [1]: 4.18 nM
- EC50 [2]: 14.2 nM
- EC50 [4]: 0.011 µg/mL and 0.06 nM
- EC50 [5]: 0.5 nM and 0.87 nM and 0.6 nM
- EC50 [6]: 1.86 nM
- EC50 [7]: 13.8 nM
- EC50 [8]: 5.74 nM
- EC50 [9]: 0.4 nM
- EC50 [10]: 6.75 nM
- EC50 [11]: 1.02 nM
- EC50 [12]: 6.33 nM
B1: CD3xFLT3 bispecific antibody 118BA #3 (bispecific antibody, human IgG1, lambda)
heavy: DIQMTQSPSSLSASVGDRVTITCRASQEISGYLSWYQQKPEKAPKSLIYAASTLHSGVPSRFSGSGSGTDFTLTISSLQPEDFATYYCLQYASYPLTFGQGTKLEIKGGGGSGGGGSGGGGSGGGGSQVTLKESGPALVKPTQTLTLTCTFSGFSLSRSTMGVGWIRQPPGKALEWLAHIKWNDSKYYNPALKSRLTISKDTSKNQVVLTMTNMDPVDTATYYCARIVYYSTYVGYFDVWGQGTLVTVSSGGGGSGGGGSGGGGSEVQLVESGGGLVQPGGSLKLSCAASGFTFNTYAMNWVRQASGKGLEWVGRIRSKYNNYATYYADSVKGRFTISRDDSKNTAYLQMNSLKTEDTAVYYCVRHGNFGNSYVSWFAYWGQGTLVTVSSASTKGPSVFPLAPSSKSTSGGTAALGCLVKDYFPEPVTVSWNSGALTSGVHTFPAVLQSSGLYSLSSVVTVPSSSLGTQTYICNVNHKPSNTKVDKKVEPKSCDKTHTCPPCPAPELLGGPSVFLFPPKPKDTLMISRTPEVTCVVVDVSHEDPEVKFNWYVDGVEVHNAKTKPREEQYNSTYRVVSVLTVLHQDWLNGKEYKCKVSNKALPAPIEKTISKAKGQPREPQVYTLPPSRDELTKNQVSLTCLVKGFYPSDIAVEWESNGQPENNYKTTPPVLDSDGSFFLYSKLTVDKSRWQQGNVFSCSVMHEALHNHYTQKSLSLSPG
light: QAVVTQEPSFSVSPGGTVTLTCGSSTGAVTTSNYANWVQQTPGQAFRGLIGGTNKRSSGVPDRFSGSLLGDKAALTITGAQADDESDYYCALWYSNLWVFGGGTKLTVLGGQPKAAPSVTLFPPSSEELQANKATLVCLISDFYPGAVTVAWKADSSPVKAGVETTTPSKQSNNKYAASSYLSLTPEQWKSHRSYSCQVTHEGSTVEKTVAPTECS
notes: also called #3 WT
- EC50 of cytotoxicity against HL-60 [3]: 0.014 nM
- EC50 of cytotoxicity against MOLM-13 [3]: 0.0157 nM
- EC50 of cytotoxicity against MV4-11 [3]: 0.022 nM
- EC50 of cytotoxicity against NOMO-1 [3]: 3 pM
- EC50 of cytotoxicity against OCI-AML [3]: 2 pM
- EC50 of cytotoxicity against REH [3]: 0.01 nM
- EC50 of cytotoxicity against REH cells [3]: 10 pM and 6 pM
- EC50 of cytotoxicity against THP-1 [3]: 0.25 pM
